According to publication PMC9295770 (Proceedings of the National Academy of Sciences of the …, 2022):

B1: CD3ζWT-GFP (wild-type murine CD3ζ-GFP fusion protein), transgenic mouse thymocytes (natural protein, UniProt P24161-1 22-164, looked up)
chain: QSFGLLDPKLCYLLDGILFIYGVIITALYLRAKFSRSAETAANLQDPNQLYNELNLGRREEYDVLEKKRARDPEMGGKQQRRRNPQEGVYNALQKDKMAEAYSEIGTKGERRRGKGHDGLYQGLSTATKDTYDALHMQTLAPR

Tests used:
[1] = molecular target: CD3ζL19A-GFP (L19A murine CD3ζ-GFP fusion protein), transgenic mouse thymocytes (mouse); test: immunoblot of whole lysates
[2] = molecular target: the molecule itself; test: immunoblot of whole lysates

Molecule | stoichiometry N [1] | stoichiometry N [2]
CD3ζL19A-GFP (L19A murine CD3ζ-GFP fusion protein), transgenic mouse thymocytes (natural protein) | 2 | 
B1 |  | 2
